Assay results from patent US7531337.

T1: Acetylated acetyl-CoA synthetase (Acs^Ac), Acs of S. enterica isolated from a cobB- strain
T1 chain: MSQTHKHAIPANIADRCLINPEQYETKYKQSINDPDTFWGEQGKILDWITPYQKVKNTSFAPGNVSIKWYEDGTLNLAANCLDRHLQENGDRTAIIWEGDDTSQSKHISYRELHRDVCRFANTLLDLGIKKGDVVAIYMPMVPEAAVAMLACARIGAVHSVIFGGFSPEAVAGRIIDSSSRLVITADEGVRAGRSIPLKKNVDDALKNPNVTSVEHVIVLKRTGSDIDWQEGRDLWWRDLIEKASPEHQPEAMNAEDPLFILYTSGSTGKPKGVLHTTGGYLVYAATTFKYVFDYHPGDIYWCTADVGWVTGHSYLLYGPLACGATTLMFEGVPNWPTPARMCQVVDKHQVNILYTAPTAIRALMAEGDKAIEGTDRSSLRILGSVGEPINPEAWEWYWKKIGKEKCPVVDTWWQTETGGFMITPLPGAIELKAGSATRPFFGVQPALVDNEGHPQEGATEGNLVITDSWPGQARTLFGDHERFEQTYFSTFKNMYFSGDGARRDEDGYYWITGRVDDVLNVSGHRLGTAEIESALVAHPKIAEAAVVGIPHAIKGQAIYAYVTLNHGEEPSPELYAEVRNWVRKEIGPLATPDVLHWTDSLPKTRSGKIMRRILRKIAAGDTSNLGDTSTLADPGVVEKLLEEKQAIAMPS


Assays:
[1] = target: Acetylated acetyl-CoA synthetase (Acs^Ac), Acs of S. enterica isolated from a cobB- strain (S. enterica) (UniProt Q8ZKF6); assay: cell-based or functional assay
[2] = target: T1, Acetylated acetyl-CoA synthetase …
[3] = scale: pmoles of acetyl-CoA formed min^-1 mg of protein^-1

Molecule	Acs Sp. Act. (purified Acs from CobB- host, plus BSA, CobB, NAD+) (nmoles of acetyl-CoA formed min^-1 mg^-1) [1]	Acs Sp. Act. (purified Acs from CobB- host, plus CobB, NAD+) (nmoles of acetyl-CoA formed min^-1 mg^-1) [1]	Acs Specific Activity (crude cell-free extract of Acs+ cobB- strain, plus 10 µg CobB + NAD+) [1, 3]	Acs Specific Activity (crude cell-free extract of Acs+ cobB- strain, plus 10 µg CobB) [1, 3]	reactivity of Acs with anti-acetyl-lysine antibody in a time-course immunoblot [2]
CobB sirtuin of S. enterica (purified, homogeneous) (from UniProt P0A2F2 1-273) (enzyme)	483	480	490	42	
CobB sirtuin of S. enterica (purified, homogeneous) (protein) MQSRRFHRLSRFRKNKRLLRERLRQRIFFRDRVVPEMMENPRVLVLTGAGISAESGIRTFRAADGLWEEHRVEDVATPEGFARNPGLVQTFYNARRQQLQQPEIQPNAAHLALAKLEEALGDRFLLVTQNIDNLHERAGNRNIIHMHGELLKVRCSQSGQILEWNGDVMPEDKCHCCQFPAPLRPHVVWFGEMPLGMDEIYMALSMADIFIAIGTSGHVYPAAGFVHEAKLHGAHTVELNLEPSQVGSEFEEKHYGPASQVVPEFVDKFLKGL					The decreased reactivity of Acs with the antibody was dependent on the presence of NAD^+ and CobB in a time-course experiment
